The record followed here is patent publication US8343491B2, “Anti-HIMF antibodies to treat lung diseases” (The Johns Hopkins University, priority 2006, dated 2013).

Experiment [1] concerns bone marrow cells. The experiment in a line: Cell migration assay (Transwell). The class given is cell-based, mouse. As to the method:
FIGS. 6A-6D. CD45 positive cell migration was stimulated by HIMF and inhibited by BTK inhibitor. Bone marrow cells were cultured on cover glass in 12 well plates as described in FIG. 5A-5B. The cells were then treated with BSA (FIG. 6A) or HIMF (FIG. 6B and FIG. 6C) for 4 days and fixed with pre-cooled methanol before immunocytochemistry with the indicated first antibodies. DAPI staining was used to show the nuclei. […] 5×10^5 bone marrow cells in 2% fetal bovine serum DMEM culture medium were transferred to each transwell in the presence of 50 nM BSA, HIMF, or HIMF plus 25 μM LFM-A13, respectively. The cells were cultured for 6 hours, fixed in pre-cooled methanol and stained by Coomassie Blue solution. The cells growing on the surface of the membrane were removed after staining. Bone marrow cell migration was induced by HIMF and this induction was inhibited by BTK inhibitor LFM-A13 (FIG. 6D).
Cell migration assay. Bone marrow cells were detached with trypsin-EDTA, washed in serum-free medium, and then counted and adjusted to 10^6 cells/ml. […]
BTK stimulated the migration of bone marrow cells. […] Cell migration was further determined by partial trypsin digestion culture, leaving the cells to grow in colonies on a cover glass.

Experiment [2] addresses T1, BTK (Mus musculus, UniProt P35991).
T1 construct: incubated with bone marrow cell lysate or hypoxia tissue homogenate for three hours; endogenous in cells; host or cells: lysate of cultured mouse bone marrow cells; in the second result, homogenate of mouse hind limb hypoxic tissue
In words: BTK redistribution in bone marrow cells (immunofluorescence). The following applies: 50 nM HIMF, 5 minutes. The class given is cell-based. As to the method: FIGS. 3A-3B. BTK redistribution in response to the stimulation of HIMF. Primary cultured bone marrow. Bone marrow cells were cultured on cover glass and then treated with 50 nM BSA (FIG. 3A) or HIMF (FIG. 3B) for five minutes. Cells were fixed by pre-cooled methanol before indirect immunofluorescence. BTK or FYN, a binding partner for BTK, was redistributed in bone marrow cells after the treatment of HIMF.
Immunofluorescence microscopy. Bone marrow or COS-7 cells were cultured on coverslips in DMEM containing 10% FBS and fixed in pre-cooled methanol for 5 minutes. The cells were then permeabilized with 0.2% Triton X-100 in PBS and blocked with 0.5% bovine serum albumin in PBS followed by incubation with the indicated antibodies. FITC-donkey anti-rabbit IgG and Rhodamine-donkey anti-mouse IgG were used as second antibodies. For transfection experiments, cells were cultured overnight and transfected with indicated constructs in serum-free medium for four hours and changed into DMEM containing 10% FBS overnight. Cells were fixed and stained as above. A 510 confocal microscope was used for the imaging.
Translocation of BTK in bone marrow cells in response to the stimulation of HIMF. […] The activation of BTK family tyrosine kinases will result in their stimulated translocation to membrane fractions (24). […]

The test system of experiment [3] is bone marrow cells. In words: Cell migration out of colony (partial trypsin digestion culture). The class given is cell-based, mouse. The following applies: 50 nM HIMF, 2% FBS DMEM, four days. As to the method:
FIGS. 5A-5B. HIMF stimulated bone marrow cell migration. Bone marrow cells were partially digested by trypsin-EDTA solution, washed by PBS and then sucked up and transferred to twelve well plates using a 1000 μl tip. The cells were cultured in 2% fetal bovine serum DMEM with 50 nM BSA or HIMF for four days. More cells migrated out of the original cell colony in the presence of HIMF than those in BSA (FIG. 5A). 5×10^5 bone marrow cells were cultured in transwell plates in the presence of 50 nM BSA or HIMF. The cells were cultured overnight, fixed in pre-cooled methanol and stained by Coomassie Blue solution. The cells growing on the surface of the membrane were removed after staining (FIG. 5B). A Nikon Eclipse microscope was used for the imaging.
BTK stimulated the migration of bone marrow cells. To test whether HIMF stimulates the migration of bone marrow cells, bone marrow cells were cultured in transwell plates in the presence of […] BSA or HIMF. The cells were cultured overnight, fixed in methanol and stained by Coomassie Blue solution. Cells growing on the surface of the membrane were removed by cotton tipped applicators before imaging. […] Cell migration was further determined by partial trypsin digestion culture, leaving the cells to grow in colonies on a cover glass.

The subject of experiment [4] is hindlimb ischemia tissues. In words: Mouse hindlimb ischemic model, agarose gel implant. The class given is in vivo. As to conditions: 100 nM HIMF in 2% agarose gel implanted, two weeks, versus BSA gel. As to the method: FIGS. 7A-7B. […] Mouse hind limb ischemia model was established and agarose gel containing 100 nM BSA or 100 nM HIMF (gels were cut into 2×5×8 mm pieces) were buried subcutaneously at the sites of ischemia. Two weeks later, the ischemic tissues were collected for immunocytochemistry. The tissue treated by HIMF (FIG. 7B) was shown increasing in CD34 positive cells comparing to that of BSA treated tissue (FIG. 7A).
Mouse hindlimb ischemic model. Animals were subjected to left femoral artery ligation and excision to create unilateral hind limb ischemia. For each animal, 25 mg/kg ketamine plus 10 mg/kg xylazine was injected subcutaneously. Skin incisions were performed at the middle portion of the left hind limb overlying the femoral artery. The femoral artery was gently isolated. First the proximal portion and then the distal portion of the femoral artery were ligated, and then other arterial branches as well as veins were dissected free and excised. The overlying skin was closed using two surgical staples. Tissue in the hypoxia area was removed and homogenized in TBST buffer two weeks after the operation.
HIMF promoted angiogenesis in hypoxic tissues. Hypoxia can induce pulmonary artery adventitial remodeling and neovascularization. […]

The target of experiment [5] is T1, BTK. The experiment in a line: Protein phosphorylation assay (BTK Y223) in bone marrow cells. As to conditions: 50 nM HIMF, minutes. In kind it is cell-based. As to the method:
(§1) FIGS. 4A-4C. BTK self-phosphorylation in response to the treatment of HIMF. Three plates of primary cultured bone marrow cells that were passed from the same plate of cells were cultured to confluence and then treated with HIMF (5 minutes and 30 minutes), or without HIMF. The cell lysates were used for the Western blot. The membrane was first probed by anti-BTK phosphorylation (Y223) antibody and then was probed by anti-BTK antibody after stripping (FIG. 4A). Five plates of primary cultured bone marrow cells that were passed from same plates of cells were cultured to confluence and then treated with HIMF (2.5, 5, 10 and 20 minutes respectively) or without HIMF. The cell lysates were used for the Western blot. The membrane was first detected by anti-BTK phosphorylation (Y223) antibody and then by anti-tubulin antibody (FIG. 4B). The same samples were used for the detection of fyn phosphorylation (FIG. 4C). Phosphorylation of Y416 upregulates enzyme activity. Phosphorylation of Y528 negatively regulates enzyme activity.
(§2) Protein phosphorylation assays. […] The supernatants of the samples were quantified for protein concentration and subjected to electrophoresis on a 4-15% SDS-polyacrylamide gel (Bio-Rad). […]

Another experiment relates to Fyn. In words: Fyn phosphorylation in bone marrow cells. In kind it is cell-based, mouse. As to conditions: bone marrow cells stimulated with HIMF. As to the method:
as §1, §2

For experiment [6], the target named is T1, BTK. The experiment in a line: GST pull-down assay. The class given is binding. As to the method:
FIGS. 1A-1B. BTK is a HIMF-binding molecule. GST-HIMF fusion protein and GST were incubated with glutathione-sepharose beads and then incubated with bone marrow cell lysate respectively in TBST buffer at 4° C. for three hours. The beads were washed five times by TBST and loading buffer was added to the samples. After electrophoresis, the gel was stained by Coomassie Blue. […] GST-HIMF and GST were first bonded to glutathione sepharose and then incubated with the lysate of bone marrow cells (left) or homogenate of ischemic tissue (right) at 4° C. for three hours and then washed by TBST solution three times. After SDS-PAGE and transfer to membrane, the samples were detected by anti-BTK and anti-GST antibodies (FIG. 1B).
GST pull-down assay. Bone marrow cells were cultured in ten 150×25 mm plates until confluence and collected for lysate using TBST buffer. Lysate from ten plates of bone marrow cells was used for HIMF-binding partner screening assay. Hypoxia tissue homogenate was prepared as described above. BL21 bacterial lysates for GST and GST-HIMF were first incubated with glutathione agarose in 0.1% TBST buffer for three hours and then washed three times by 0.1% TBST buffer. The GST and GST-HIMF binding glutathione agaroses were incubated with bone marrow cell lysate or hypoxia tissue homogenate for three hours and then washed 3-5 times before SDS-PAGE.

Entries after “also recorded” stand apart in the source; their conditions may differ.

T1 sequence (P35991 whole entry): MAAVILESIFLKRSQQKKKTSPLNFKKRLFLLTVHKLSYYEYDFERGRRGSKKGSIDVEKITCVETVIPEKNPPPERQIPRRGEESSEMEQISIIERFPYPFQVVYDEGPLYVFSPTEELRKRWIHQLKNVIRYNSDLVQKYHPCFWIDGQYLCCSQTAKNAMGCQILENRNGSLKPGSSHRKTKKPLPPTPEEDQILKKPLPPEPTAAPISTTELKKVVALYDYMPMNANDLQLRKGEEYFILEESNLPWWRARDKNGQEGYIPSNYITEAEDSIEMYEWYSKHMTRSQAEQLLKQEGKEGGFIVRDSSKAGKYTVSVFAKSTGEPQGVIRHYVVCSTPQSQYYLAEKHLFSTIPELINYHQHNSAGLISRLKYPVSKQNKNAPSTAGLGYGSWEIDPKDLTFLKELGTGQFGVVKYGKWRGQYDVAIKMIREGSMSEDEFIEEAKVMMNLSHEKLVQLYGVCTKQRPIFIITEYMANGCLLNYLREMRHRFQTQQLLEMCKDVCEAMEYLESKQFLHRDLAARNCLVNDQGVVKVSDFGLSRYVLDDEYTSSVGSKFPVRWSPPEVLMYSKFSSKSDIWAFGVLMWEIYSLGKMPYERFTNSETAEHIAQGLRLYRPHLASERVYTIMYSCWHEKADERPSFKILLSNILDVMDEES

Take `C/C(O)=C(\C#N)C(=O)Nc1cc(Br)ccc1Br` [LFM-A13, reference compound]: the “Inhibition of HIMF-induced bone marrow cell migration” value in the experiment on bone marrow cells [1] (25 μM LFM-A13 plus 50 nM HIMF, transwell, 6 hours) is “inhibited; also recorded: completely blocked”.

B1: HIMF: Hypoxia-induced mitogenic factor protein (Flag-tagged mouse HIMF) applied to cells and tissue (protein)
chain: DETIEIIVENKVKELLANPANYPSTVTKTLSCTSVKTMNRWASCPAGMTATGCACGFACGSWEIQSGDTCNCLCLLVDWTTARCCQLS
As to B1, the “BTK translocation in bone marrow cells” value in the experiment with BTK [2] is on record as “rapidly induced recruitment of BTK to the leading edge of cells”. The “Bone marrow cell migration out of the colony versus BSA” value with bone marrow cells [3] is recorded as “more bone marrow cells were stimulated to migrate out of the colony”. Also, in experiment [4], the “Angiogenesis in hindlimb ischemia tissues” value is on record as “stimulated angiogenesis” and the “CD34 positive cells in ischemic tissue” value is “increased”. Further, the “BTK self-phosphorylation (Y223)” value with BTK [5] is recorded as “stimulate the self-phosphorylation of BTK”. Further, in the experiment on bone marrow cells [1] (50 nM HIMF, overnight), the “Bone marrow cell migration (transwell) versus BSA” value is “markedly promoted; also recorded: More cells migrated out of the chamber”. In addition, the “Fyn activity (phosphorylation Y416/Y528)” value in the experiment on Fyn is “not changed in activity”.

B2: GST-HIMF: GST fusion protein of mouse HIMF expressed in BL21 cells (protein)
chain: B1 chain
modifications: left off: a dimerising Fc or GST
notes: GST fusion protein of mouse HIMF expressed in BL21 cells
In the case of B2, the “Pull-down of BTK from bone marrow cell lysate” value in the experiment with BTK [6] (bone marrow cell lysate, GST control did not) is listed as “pulled down BTK”. The “Binding of BTK from hind limb hypoxic tissue homogenate” value in the experiment with BTK [6] (homogenate of mouse hind limb hypoxic tissue, not to GST) is reported as “shown to bind”.
